Measured values as given in patent US20220332804A1 (CSL INNOVATION, published 2022).

Legend:
Assay in all cases: SPR, KD relative to WT C2;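 further: biacore SPR at 37 °C, anti-C2 mAbs captured via immobilised goat anti-human IgG, C2 alanine or serine surface mutants as analytes, 1:1 model fitted, double-referenced sensograms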
[1] = target: T1, human C2 L279A (human, UniProt P06681 21-752)
T1 sequence: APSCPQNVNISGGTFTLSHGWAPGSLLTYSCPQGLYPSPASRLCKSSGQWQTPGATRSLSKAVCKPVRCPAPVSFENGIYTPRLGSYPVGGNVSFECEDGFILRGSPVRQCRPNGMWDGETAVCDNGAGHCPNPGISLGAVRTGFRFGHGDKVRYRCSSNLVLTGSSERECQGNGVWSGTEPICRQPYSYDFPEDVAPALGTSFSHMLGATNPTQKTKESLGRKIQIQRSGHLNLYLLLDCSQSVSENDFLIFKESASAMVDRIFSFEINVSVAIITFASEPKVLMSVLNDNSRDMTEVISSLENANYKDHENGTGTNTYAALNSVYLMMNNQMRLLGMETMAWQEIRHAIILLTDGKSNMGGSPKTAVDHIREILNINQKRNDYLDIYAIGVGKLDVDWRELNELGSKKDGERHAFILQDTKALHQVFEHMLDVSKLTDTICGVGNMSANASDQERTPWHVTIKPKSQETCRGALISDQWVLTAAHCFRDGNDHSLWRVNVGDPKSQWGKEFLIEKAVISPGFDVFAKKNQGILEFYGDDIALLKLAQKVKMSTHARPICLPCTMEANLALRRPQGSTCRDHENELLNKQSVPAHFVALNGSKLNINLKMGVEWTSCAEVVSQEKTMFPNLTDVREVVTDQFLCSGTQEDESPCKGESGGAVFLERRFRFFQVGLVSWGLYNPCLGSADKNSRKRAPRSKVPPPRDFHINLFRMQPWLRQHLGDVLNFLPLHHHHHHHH

[2] = target: T2, human C2 N380A (human, UniProt P06681 21-752)
T2 sequence: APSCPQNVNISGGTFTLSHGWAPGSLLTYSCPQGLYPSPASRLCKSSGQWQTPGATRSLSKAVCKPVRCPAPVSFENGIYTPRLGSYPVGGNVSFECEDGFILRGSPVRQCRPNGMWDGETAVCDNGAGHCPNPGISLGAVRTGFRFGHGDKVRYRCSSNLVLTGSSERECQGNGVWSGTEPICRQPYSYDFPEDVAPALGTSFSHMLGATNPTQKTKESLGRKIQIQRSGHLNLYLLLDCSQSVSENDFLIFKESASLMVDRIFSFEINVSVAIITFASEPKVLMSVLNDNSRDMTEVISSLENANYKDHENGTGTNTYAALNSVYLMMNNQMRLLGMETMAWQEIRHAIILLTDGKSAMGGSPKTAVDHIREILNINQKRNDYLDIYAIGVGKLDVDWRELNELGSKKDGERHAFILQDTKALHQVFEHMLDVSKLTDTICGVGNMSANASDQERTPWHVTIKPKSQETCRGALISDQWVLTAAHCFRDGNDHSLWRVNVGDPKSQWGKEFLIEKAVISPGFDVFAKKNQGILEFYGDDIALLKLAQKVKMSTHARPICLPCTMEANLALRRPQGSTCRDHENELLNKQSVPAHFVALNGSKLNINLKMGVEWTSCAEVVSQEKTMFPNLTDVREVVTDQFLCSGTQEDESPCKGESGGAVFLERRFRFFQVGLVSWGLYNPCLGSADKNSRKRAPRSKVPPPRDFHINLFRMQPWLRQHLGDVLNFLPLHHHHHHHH

[3] = target: T3, human C2 K415A (human, UniProt P06681 21-752)
T3 sequence: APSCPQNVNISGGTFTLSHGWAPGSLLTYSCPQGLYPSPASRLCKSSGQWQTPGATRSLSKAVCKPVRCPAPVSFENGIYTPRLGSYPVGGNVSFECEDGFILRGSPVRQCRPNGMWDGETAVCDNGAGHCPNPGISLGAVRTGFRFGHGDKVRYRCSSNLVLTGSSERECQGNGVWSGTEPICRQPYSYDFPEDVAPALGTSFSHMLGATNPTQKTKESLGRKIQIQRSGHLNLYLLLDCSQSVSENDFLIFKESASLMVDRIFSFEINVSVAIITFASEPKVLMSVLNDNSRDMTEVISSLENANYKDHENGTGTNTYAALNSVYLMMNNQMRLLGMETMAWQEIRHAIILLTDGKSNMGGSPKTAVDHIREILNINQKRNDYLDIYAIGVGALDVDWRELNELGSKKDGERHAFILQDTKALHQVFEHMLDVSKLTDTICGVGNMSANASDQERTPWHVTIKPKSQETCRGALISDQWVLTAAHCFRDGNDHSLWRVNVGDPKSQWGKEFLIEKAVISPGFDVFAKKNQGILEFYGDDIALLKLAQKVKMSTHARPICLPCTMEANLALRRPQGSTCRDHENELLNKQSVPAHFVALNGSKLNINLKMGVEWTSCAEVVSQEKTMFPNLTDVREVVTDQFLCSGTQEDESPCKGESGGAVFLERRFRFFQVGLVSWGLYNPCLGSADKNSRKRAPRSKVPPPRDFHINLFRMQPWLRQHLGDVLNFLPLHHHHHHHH

[4] = target: T4, human C2 V465A (human, UniProt P06681 21-752)
T4 sequence: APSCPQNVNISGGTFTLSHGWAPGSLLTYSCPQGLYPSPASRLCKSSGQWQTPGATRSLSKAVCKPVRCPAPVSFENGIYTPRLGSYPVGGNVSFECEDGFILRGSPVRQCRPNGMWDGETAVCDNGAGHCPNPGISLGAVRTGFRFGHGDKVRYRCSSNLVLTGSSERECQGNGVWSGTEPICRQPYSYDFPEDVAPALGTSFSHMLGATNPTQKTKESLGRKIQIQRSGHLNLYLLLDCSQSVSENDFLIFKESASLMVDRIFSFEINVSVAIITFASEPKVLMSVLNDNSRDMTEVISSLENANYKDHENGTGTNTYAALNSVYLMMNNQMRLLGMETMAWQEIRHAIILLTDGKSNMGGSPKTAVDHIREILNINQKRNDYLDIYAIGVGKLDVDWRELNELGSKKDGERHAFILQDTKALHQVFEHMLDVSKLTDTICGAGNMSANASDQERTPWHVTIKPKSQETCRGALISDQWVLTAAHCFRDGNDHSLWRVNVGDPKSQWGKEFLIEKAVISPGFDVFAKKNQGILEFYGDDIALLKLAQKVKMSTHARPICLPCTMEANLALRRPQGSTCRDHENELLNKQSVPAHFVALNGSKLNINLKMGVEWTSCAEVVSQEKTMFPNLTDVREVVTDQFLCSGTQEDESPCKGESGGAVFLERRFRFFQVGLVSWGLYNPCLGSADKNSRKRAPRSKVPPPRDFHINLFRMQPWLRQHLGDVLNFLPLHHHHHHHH

B1: RF16-226 (antibody, human IgG4 S228P, lambda)
heavy: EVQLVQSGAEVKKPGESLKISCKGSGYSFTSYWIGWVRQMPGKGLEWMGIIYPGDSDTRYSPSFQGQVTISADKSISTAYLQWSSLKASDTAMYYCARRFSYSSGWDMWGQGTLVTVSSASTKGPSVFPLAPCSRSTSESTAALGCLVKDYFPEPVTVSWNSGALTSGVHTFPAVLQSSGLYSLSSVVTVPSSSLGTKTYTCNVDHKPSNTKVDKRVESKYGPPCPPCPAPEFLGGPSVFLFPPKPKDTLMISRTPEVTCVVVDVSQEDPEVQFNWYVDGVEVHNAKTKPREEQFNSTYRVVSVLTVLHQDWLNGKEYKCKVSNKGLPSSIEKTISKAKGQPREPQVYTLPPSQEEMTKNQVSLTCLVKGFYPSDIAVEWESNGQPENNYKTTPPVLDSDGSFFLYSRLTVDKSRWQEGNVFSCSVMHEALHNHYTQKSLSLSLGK
light: SYELTQPPSVSVSPGQTARITCSGDALTSKYVAWYQQKSGLAPLLVIYEDTRRPSGIPAKFSGSSSGSVATLTISGAHGDDEADYYCYSTDASGHQRVFGGGTKLTVLSQPKAAPSVTLFPPSSEELQANKATLVCLISDFYPGAVTVAWKADGSPVKAGVETTKPSKQSNNKYAASSYLSLTPEQWKSHRSYSCQVTHEGSTVEKTVAPTECS
notes: pH-dependent anti-C2 antibody from a phage display library; also called WT
Question: How did the Fold diff [1] turn out when B1 was run?
Answer: 5 fold

Question: And the Fold diff [2]?
Answer: 2 fold

Question: What about the Fold diff [3] of the same binder?
Answer: 1 fold

Question: And the Fold diff [4]?
Answer: 2 fold
